We go through one protein from PMC3156243, “Properties and Crystal Structure of Methylenetetrahydrofolate Reductase from Thermus thermophilus HB8” (PLoS ONE, 2011).

What all share (assay): purified protein
Substrate in data set [1]: Nc1nc2c(c(=O)[nH]1)N1CN(c3ccc(C(=O)N[C@@H](CCC(=O)O)C(=O)O)cc3)C[C@H]1CN2
Particulars: FAD; 50.0 °C.

Substrate in data set [2]: Cc1cc2nc3c(=O)[nH]c(=O)nc-3n(C[C@H](O)[C@H](O)[C@H](O)COP(=O)(O)OP(=O)(O)OC[C@H]3O[C@@H](n4cnc5c(N)ncnc54)[C@H](O)[C@@H]3O)c2cc1C
To be noted: active center of the β[…]α[…] barrel; Glu18 near the si-face of the isoalloxazine ring, Asp109 near C2; non-covalently bound; varied: cofactor.

Substrate in data set [3]: NC(=O)C1=CN([C@@H]2O[C@H](COP(=O)(O)OP(=O)(O)OC[C@H]3O[C@@H](n4cnc5c(N)ncnc54)[C@H](O)[C@@H]3O)[C@@H](O)[C@H]2O)C=CC1
Particulars: FAD; 25.0 °C.

B1: MTHFR (methylenetetrahydrofolate reductase) (Thermus thermophilus HB8) (protein)
chain: MKIRDLLKARRGPLFSFEFFPPKDPEGEEALFRTLEELKAFRPAFVSITYGAMGSTRERSVAWAQRIQSLGLNPLAHLTVAGQSRKEVAEVLHRFVESGVENLLALRGDPPRGERVFRPHPEGFRYAAELVALIRERYGDRVSVGGAAYPEGHPESESLEADLRHFKAKVEAGLDFAITQLFFNNAHYFGFLERARRAGIGIPILPGIMPVTSYRQLRRFTEVCGASIPGPLLAKLERHQDDPKAVLEIGVEHAVRQVAELLEAGVEGVHFYTLNKSPATRMVLERLGLRPASGQP
On to B1, for which the Km in data set [1] came to 180 ± 23 µM; in data set [2], 5 µM; in data set [3], 9.7 ± 2.1 µM.
